Reference: patent US20250066503A1, “CELL INJURY INDUCING THERAPEUTIC DRUG FOR USE IN CANCER THERAPY” (CHUGAI SEIYAKU KABUSHIKI KAISHA, priority 2016, published 2025)

B1: TR01H015-E2702GsKsc/GCH019-E2704sEpsc/L0000-k0 (bispecific antibody, human IgG4 S228P, kappa, N297A)
heavy 1: QVQLVESGGGLVQPGRSLRLSCAASGFTFSNAWMHWVRQAPGKGLEWVAQIKGKSNNYATYYAESVKGRFTISRADSKNSIYLQMNSLKTEDTAVYYCRYVHYSASYGVDIWGQGTTVTVSSASTKGPSVFPLAPCSRSTSESTAALGCLVKDYFPEPVTVSWNSGALTSGVHTFPAVLQSSGLYSLSSVVTVPSSSLGTKTYTCNVDHKPSNTKVDKRVESKYGPPCPPCPAPEFRGGPKVFLFPPKPKDTLMISRTPEVTCVVVDVSQEDPEVQFNWYVDGVEVHNAKTKPREEQFASTYRVVSVLTVLHQDWLNGKEYKCKVSNKGLPSSIEKTISKAKGQPREPQVYTLPPSQKEMTKNQVSLTCLVKGFYPSDIAVEWESNGQPENNYKTTPPVLDSDGSFFLYSKLTVDKSRWQEGNVFSCSVMHEALHNRYTQKSLSLSP
heavy 2: QVQLVQSGAEVKKPGASVTVSCKASGYTFTDYEMHWIRQPPGEGLEWIGAIDGKTPDTAYEQKFKGRVTLTADKSTSTAYMELSSLTSEDTAVYYCTRFYSYTYWGQGTLVTVSSASTKGPSVFPLAPCSRSTSESTAALGCLVKDYFPEPVTVSWNSGALTSGVHTFPAVLQSSGLYSLSSVVTVPSSSLGTQTYTCNVDHKPSNTKVDKRVESKYGPPCPPCPAPEFRGGPKVFLFPPKPKDTLMISRTPEVTCVVVDVSQEDPEVQFNWYVDGVEVHNAKTKPREEQFASTYRVVSVLTVLHQDWLNGKEYKCKVSNKGLPSSIEKTISKAKGQPREPQVYTLPPSQEEMTKNQVSLTCLVKGFYPSDIAVEWESNGQPENNYKTTPPVLDSDGSFFLYSKLTVDKSRWQEGNVFSCSVMHEALHNHYTQESLSLSP
light: DIVMTQSPLSLPVTPGEPASISCRSSQSLVHSNRNTYLHWYQQKPGQAPRLLIYKVSNRFSGVPDRFSGSGSGTDFTLKISRVEAEDVGVYYCGQGTQVPYTFGQGTKLEIKRTVAAPSVFIFPPSDEQLKSGTASVVCLLNNFYPREAKVQWKVDNALQSGNSQESVTEQDSKDSTYSLSSTLTLSKADYEKHKVYACEVTHQGLSSPVTKSFNRGEC
notes: common L chain format
B2: GCH099-G1dh/none-Hi-Kn010G3/L0000-k0 (antibody, V domains shown)
VH: QVQLVQSGAEVKKPGASVTVSCKASGYTFTDYEMHWVRQAPGEGLEWMGAIDGWTPDTAYSEKFKGRVTLTADKSTSTAYMELSSLTSEDTAVYYCTRFYSYTYWGQGTLVTVSS
VL: DIVMTQSPLSLPVTPGEPASISCRSSQSLVHSNRNTYLHWYQQKPGQAPRLLIYKVSNRFSGVPDRFSGSGSGTDFTLKISRVEAEDVGVYYCGQGTQVPYTFGQGTKLEIKR
notes: one-arm
B3: H0610-G1dh/none-Hi-Kn010G3/L0000vk1-k0 (antibody, V domains shown)
VH: QVQLVQSGAEVKKPGASVKVSCKASGYTFTDYEMHWIRQPPGQGLEWIGAIDGKTPDTAYSQKFKGRVTLTADKSTSTAYMELSSLTSEDTAVYYCTRFYSYTYWGQGTLVTVSS
VL: DIQMTQSPSSLSASVGDRVTITCRSSQSLVHSNRNTYLHWYQQKPGKAPKLLIYKVSNRFSGVPSRFSGSGSGTDFTFTISSLQPEDIATYYCGQGTQVPYTFGQGTKVEIK
notes: one-arm
B4: H0610-G1dh/none-Hi-Kn010G3/L0209-k0 (antibody, V domains shown)
VH: QVQLVQSGAEVKKPGASVKVSCKASGYTFTDYEMHWIRQPPGQGLEWIGAIDGKTPDTAYSQKFKGRVTLTADKSTSTAYMELSSLTSEDTAVYYCTRFYSYTYWGQGTLVTVSS
VL: DIVMTQSPLSLPVTPGEPASISCRSSQSPVHSNRNTYIHWYQQKPGQAPRLLIYKVSNRFSGVPDRFSGSGSGTDFTLKISRVEAEDVGVYYCYQGTQVPYTFGQGTKLEIKR
notes: one-arm
B5: GCH099-G1dh/none-Hi-Kn010G3/L0011-k0 (antibody, V domains shown)
VH: QVQLVQSGAEVKKPGASVTVSCKASGYTFTDYEMHWVRQAPGEGLEWMGAIDGWTPDTAYSEKFKGRVTLTADKSTSTAYMELSSLTSEDTAVYYCTRFYSYTYWGQGTLVTVSS
VL: DIVMTQSPLSLPVTPGEPASISCRSSQPLVHSNRNTYLHWYQQKPGQAPRLLIYKVSNRFSGVPDRFSGSGSGTDFTLKISRVEAEDVGVYYCGQGTQVPYTFGQGTKLEIKR
notes: one-arm
B6: H0610-G1dh/none-Hi-Kn010G3/L0222-k0 (antibody, V domains shown)
VH: QVQLVQSGAEVKKPGASVKVSCKASGYTFTDYEMHWIRQPPGQGLEWIGAIDGKTPDTAYSQKFKGRVTLTADKSTSTAYMELSSLTSEDTAVYYCTRFYSYTYWGQGTLVTVSS
VL: DIVMTQSPLSLPVTPGEPASISCRSSQSPVHSNRNTYIQWYQQKPGQAPRLLIYKVSNRFSGVPDRFSGSGSGTDFTLKISRVEAEDVGVYYCYQGTQVPYTFGQGTKLEIKR
notes: one-arm
B7: H0610-G1dh/none-Hi-Kn010G3/L0212-k0 (antibody, V domains shown)
VH: QVQLVQSGAEVKKPGASVKVSCKASGYTFTDYEMHWIRQPPGQGLEWIGAIDGKTPDTAYSQKFKGRVTLTADKSTSTAYMELSSLTSEDTAVYYCTRFYSYTYWGQGTLVTVSS
VL: DIVMTQSPLSLPVTPGEPASISCRPSQSPVHSNRNTYLHWYQQKPGQAPRLLIYKVSNRFSGVPDRFSGSGSGTDFTLKISRVEAEDVGVYYCYQGTQVPYTFGQGTKLEIKR
notes: one-arm
B8: GCH100-G1dh/none-Hi-Kn010G3/L0201-k0 (antibody, V domains shown)
VH: QVQLVQSGAEVKKPGASVTVSCKASGYTFTDYEMHWVRQAPGEGLEWMGAIDGYTPDTAYSEKFKGRVTLTADKSTSTAYMELSSLTSEDTAVYYCTRFYSYTYWGQGTLVTVSS
VL: DIVMTQSPLSLPVTPGEPASISCRSSQPPVHSNRNTYLHWYQQKPGQAPRLLIYKVSNRFSGVPDRFSGSGSGTDFTLKISRVEAEDVGVYYCGQGTQVPYTFGQGTKLEIKR
notes: one-arm
B9: H0610-G1dh/none-Hi-Kn010G3/L0208-k0 (antibody, V domains shown)
VH: QVQLVQSGAEVKKPGASVKVSCKASGYTFTDYEMHWIRQPPGQGLEWIGAIDGKTPDTAYSQKFKGRVTLTADKSTSTAYMELSSLTSEDTAVYYCTRFYSYTYWGQGTLVTVSS
VL: DIVMTQSPLSLPVTPGEPASISCRSSQSPVHSNRNTYLHWYQQKPGQAPRLLIYKVSNRFWGVPDRFSGSGSGTDFTLKISRVEAEDVGVYYCYQGTQVPYTFGQGTKLEIKR
notes: one-arm
B10: GCH099-G1dh/none-Hi-Kn010G3/L0201-k0 (antibody, V domains shown)
VH: QVQLVQSGAEVKKPGASVTVSCKASGYTFTDYEMHWVRQAPGEGLEWMGAIDGWTPDTAYSEKFKGRVTLTADKSTSTAYMELSSLTSEDTAVYYCTRFYSYTYWGQGTLVTVSS
VL: DIVMTQSPLSLPVTPGEPASISCRSSQPPVHSNRNTYLHWYQQKPGQAPRLLIYKVSNRFSGVPDRFSGSGSGTDFTLKISRVEAEDVGVYYCGQGTQVPYTFGQGTKLEIKR
notes: one-arm
B11: H0610-G1dh/none-Hi-Kn010G3/L0201-k0 (antibody, V domains shown)
VH: QVQLVQSGAEVKKPGASVKVSCKASGYTFTDYEMHWIRQPPGQGLEWIGAIDGKTPDTAYSQKFKGRVTLTADKSTSTAYMELSSLTSEDTAVYYCTRFYSYTYWGQGTLVTVSS
VL: DIVMTQSPLSLPVTPGEPASISCRSSQPPVHSNRNTYLHWYQQKPGQAPRLLIYKVSNRFSGVPDRFSGSGSGTDFTLKISRVEAEDVGVYYCGQGTQVPYTFGQGTKLEIKR
notes: one-arm
B12: H0610-G1dh/none-Hi-Kn010G3/L0211-k0 (antibody, V domains shown)
VH: QVQLVQSGAEVKKPGASVKVSCKASGYTFTDYEMHWIRQPPGQGLEWIGAIDGKTPDTAYSQKFKGRVTLTADKSTSTAYMELSSLTSEDTAVYYCTRFYSYTYWGQGTLVTVSS
VL: DIVMTQSPLSLPVTPGEPASISCRSSQPPVHSNRNTYLHWYQQKPGQAPRLLIYKVSNRFSGVPDRFSGSGSGTDFTLKISRVEAEDVGVYYCYQGTQVPYTFGQGTKLEIKR
notes: one-arm
B13: GCH100-G1dh/none-Hi-Kn010G3/L0000-k0 (antibody, V domains shown)
VH: QVQLVQSGAEVKKPGASVTVSCKASGYTFTDYEMHWVRQAPGEGLEWMGAIDGYTPDTAYSEKFKGRVTLTADKSTSTAYMELSSLTSEDTAVYYCTRFYSYTYWGQGTLVTVSS
VL: DIVMTQSPLSLPVTPGEPASISCRSSQSLVHSNRNTYLHWYQQKPGQAPRLLIYKVSNRFSGVPDRFSGSGSGTDFTLKISRVEAEDVGVYYCGQGTQVPYTFGQGTKLEIKR
notes: one-arm
B14: H0610-G1dh/none-Hi-Kn010G3/L0203-k0 (antibody, V domains shown)
VH: QVQLVQSGAEVKKPGASVKVSCKASGYTFTDYEMHWIRQPPGQGLEWIGAIDGKTPDTAYSQKFKGRVTLTADKSTSTAYMELSSLTSEDTAVYYCTRFYSYTYWGQGTLVTVSS
VL: DIVMTQSPLSLPVTPGEPASISCRSSQSPVHSNRNTYIHWYQQKPGQAPRLLIYKVSNRFSGVPDRFSGSGSGTDFTLKISRVEAEDVGVYYCGQGTQVPYTFGQGTKLEIKR
notes: one-arm
B15: GCH100-G1dh/none-Hi-Kn010G3/L0011-k0 (antibody, V domains shown)
VH: QVQLVQSGAEVKKPGASVTVSCKASGYTFTDYEMHWVRQAPGEGLEWMGAIDGYTPDTAYSEKFKGRVTLTADKSTSTAYMELSSLTSEDTAVYYCTRFYSYTYWGQGTLVTVSS
VL: DIVMTQSPLSLPVTPGEPASISCRSSQPLVHSNRNTYLHWYQQKPGQAPRLLIYKVSNRFSGVPDRFSGSGSGTDFTLKISRVEAEDVGVYYCGQGTQVPYTFGQGTKLEIKR
notes: one-arm
B16: H0610-G1dh/none-Hi-Kn010G3/L0206-k0 (antibody, V domains shown)
VH: QVQLVQSGAEVKKPGASVKVSCKASGYTFTDYEMHWIRQPPGQGLEWIGAIDGKTPDTAYSQKFKGRVTLTADKSTSTAYMELSSLTSEDTAVYYCTRFYSYTYWGQGTLVTVSS
VL: DIVMTQSPLSLPVTPGEPASISCRSSQSPVHSNRNTYLHWYQQKPGQAPRLLIYKVSNRFSGVPDRFSGSGSGTDFTLKISRVEAEDVGVYYCYQGTQVPYTFGQGTKLEIKR
notes: one-arm
B17: H0610-G1dh/none-Hi-Kn010G3/L0204-k0 (antibody, V domains shown)
VH: QVQLVQSGAEVKKPGASVKVSCKASGYTFTDYEMHWIRQPPGQGLEWIGAIDGKTPDTAYSQKFKGRVTLTADKSTSTAYMELSSLTSEDTAVYYCTRFYSYTYWGQGTLVTVSS
VL: DIVMTQSPLSLPVTPGEPASISCRSSQSPVHSNRNTYLHWYQQKPGQAPRLLIYKVSNRFRGVPDRFSGSGSGTDFTLKISRVEAEDVGVYYCGQGTQVPYTFGQGTKLEIKR
notes: one-arm
B18: H0610-G1dh/none-Hi-Kn010G3/L0011-k0 (antibody, V domains shown)
VH: QVQLVQSGAEVKKPGASVKVSCKASGYTFTDYEMHWIRQPPGQGLEWIGAIDGKTPDTAYSQKFKGRVTLTADKSTSTAYMELSSLTSEDTAVYYCTRFYSYTYWGQGTLVTVSS
VL: DIVMTQSPLSLPVTPGEPASISCRSSQPLVHSNRNTYLHWYQQKPGQAPRLLIYKVSNRFSGVPDRFSGSGSGTDFTLKISRVEAEDVGVYYCGQGTQVPYTFGQGTKLEIKR
notes: one-arm

Each binder was assayed against T1, soluble human CD3 epsilon chain (human, UniProt P07766 23-126) (assay: SPR).
T1 construct: also called CD3ε
T1 sequence (P07766 23-126 limits assumed): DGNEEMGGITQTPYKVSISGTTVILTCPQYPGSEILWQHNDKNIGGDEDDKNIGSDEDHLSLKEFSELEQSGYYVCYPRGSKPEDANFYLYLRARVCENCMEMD
In the case of B1, the Kd is reported as 29.6 nM.

These binders were tested against T2, human GPC3 (human, UniProt P51654 25-563) (assay: SPR).
T2 construct: range 25-563; soluble analyte; also called soluble human GPC3; glypican 3
T2 sequence (P51654 25-563 limits assumed): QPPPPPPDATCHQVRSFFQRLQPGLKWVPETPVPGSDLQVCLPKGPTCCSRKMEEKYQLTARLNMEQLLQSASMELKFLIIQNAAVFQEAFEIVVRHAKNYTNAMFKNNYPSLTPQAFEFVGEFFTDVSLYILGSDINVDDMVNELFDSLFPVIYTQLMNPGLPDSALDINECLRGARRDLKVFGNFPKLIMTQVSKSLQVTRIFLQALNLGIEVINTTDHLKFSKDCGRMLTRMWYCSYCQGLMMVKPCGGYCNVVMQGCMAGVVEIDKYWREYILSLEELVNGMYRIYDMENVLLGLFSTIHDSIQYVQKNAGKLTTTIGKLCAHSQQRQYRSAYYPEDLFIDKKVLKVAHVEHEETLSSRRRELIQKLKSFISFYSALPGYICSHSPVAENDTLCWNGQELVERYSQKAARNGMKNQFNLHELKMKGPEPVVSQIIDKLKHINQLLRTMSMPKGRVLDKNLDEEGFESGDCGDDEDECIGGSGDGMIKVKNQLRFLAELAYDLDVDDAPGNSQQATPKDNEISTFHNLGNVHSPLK
With B2 the Kd was 4.24 nM.
In the case of B3, the Kd is reported as 2.16 nM.
Work on B4 yielded a Kd of 1.12 nM.
B5 gave a Kd of 2.78 nM.
In the case of B6, the Kd is reported as 0.00014 nM.
B7 showed a Kd of 0.994 nM.
Work on B8 yielded a Kd of 1.37 nM.
With B9 the Kd was 0.53 nM.
B10 showed a Kd of 1.29 nM.
B11 gave a Kd of 1.13 nM.
B12 was tested, and the Kd was 0.647 nM.
B13 gave a Kd of 5.39 nM.
With B14 the Kd was 2.11 nM.
Binder B15 has a Kd of 3.81 nM.
B16 gave a Kd of 0.865 nM.
B17 gave a Kd of 0.727 nM.
Binder B18 has a Kd of 2.76 nM.
In the case of B1, the Kd is reported as 1.64 nM.
